# T1: human NXF1(117-619)-NXT1 heterodimer, wild type (human, UniProt Q9UBU9 117-619; Q9UKK6 1-140)
# T1 construct: human NXF1 (mRNA export receptor), residues 117-619; human NXT1, coexpressed with NXF1; also called NXF1-NXT1; mRNA export receptor; source: E. coli Rosetta, coexpressed, purified (details in SI Appendix)
# T1 sequence (looked up) 1: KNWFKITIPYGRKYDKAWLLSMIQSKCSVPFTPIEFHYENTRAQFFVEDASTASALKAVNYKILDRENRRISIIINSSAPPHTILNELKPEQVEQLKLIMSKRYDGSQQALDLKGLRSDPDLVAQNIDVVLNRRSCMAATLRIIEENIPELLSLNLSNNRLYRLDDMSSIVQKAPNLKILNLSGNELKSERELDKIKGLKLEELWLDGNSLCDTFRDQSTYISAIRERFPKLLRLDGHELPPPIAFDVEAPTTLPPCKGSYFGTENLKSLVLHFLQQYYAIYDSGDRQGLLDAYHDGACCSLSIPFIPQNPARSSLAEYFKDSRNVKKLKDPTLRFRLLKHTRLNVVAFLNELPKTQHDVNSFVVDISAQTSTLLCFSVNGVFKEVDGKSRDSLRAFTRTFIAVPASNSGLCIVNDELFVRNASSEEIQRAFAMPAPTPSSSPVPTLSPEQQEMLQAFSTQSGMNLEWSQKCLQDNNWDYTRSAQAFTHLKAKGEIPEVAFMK
# T1 sequence (looked up) 2: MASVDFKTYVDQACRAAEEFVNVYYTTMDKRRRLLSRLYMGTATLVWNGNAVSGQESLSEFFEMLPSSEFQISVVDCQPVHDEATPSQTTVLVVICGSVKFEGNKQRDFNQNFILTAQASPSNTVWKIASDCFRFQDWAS
# Target: T1, human NXF1(117-619)-NXT1 heterodimer, …
# Settings: both partners purified
row,Binder,binding result
1,GST-tagged SARS-CoV-2 Nsp1 E55A/E57A/K58E (natural protein) MESLVPGFNEKTHVQLSLPVLQVRDVLVRGFGDSVEEVLSEARQHLKDGTCGLVAVAEGVLPQLEQPYVFIKRSDARTAPHGHVMVELVAELEGIQYGRSGETLGVLVPHVGEIPVAYRKVLLRKNGNKGAGGHSYGADLKSFDLGDELGTDPYEDFQENWNTKHSSGVTRELMRELNGG,binds
2,"GST-tagged SARS-CoV-2 Nsp1 L27D/V28D (natural protein, also called hydrophobic patch mutant) MESLVPGFNEKTHVQLSLPVLQVRDVDDRGFGDSVEEVLSEARQHLKDGTCGLVEVEKGVLPQLEQPYVFIKRSDARTAPHGHVMVELVAELEGIQYGRSGETLGVLVPHVGEIPVAYRKVLLRKNGNKGAGGHSYGADLKSFDLGDELGTDPYEDFQENWNTKHSSGVTRELMRELNGG",binds
3,GST-tagged SARS-CoV-2 Nsp1 N-terminal domain (residues 1 to 129) (domain or fragment) MESLVPGFNEKTHVQLSLPVLQVRDVLVRGFGDSVEEVLSEARQHLKDGTCGLVEVEKGVLPQLEQPYVFIKRSDARTAPHGHVMVELVAELEGIQYGRSGETLGVLVPHVGEIPVAYRKVLLRKNGNK,binds
4,GST-tagged SARS-CoV-2 Nsp1 E91K/L92A/E93K/I95A (natural protein) MESLVPGFNEKTHVQLSLPVLQVRDVLVRGFGDSVEEVLSEARQHLKDGTCGLVEVEKGVLPQLEQPYVFIKRSDARTAPHGHVMVELVAKAKGAQYGRSGETLGVLVPHVGEIPVAYRKVLLRKNGNKGAGGHSYGADLKSFDLGDELGTDPYEDFQENWNTKHSSGVTRELMRELNGG,binds
